Target: T1, His6-tagged Bd2492 (Bd2492-His6) expressed in E. coli from plasmid pD2492N/3734 (Bdellovibrio bacteriovorus HD100, UniProt Q6MKB3 1-353)
T1 construct: Bd2492, 353 amino acid TPR protein of Bdellovibrio bacteriovorus HD100; The label Bd2492-His6 hints at a C-terminal tag and the plasmid name pD2492N at an N-terminal one; also called TPRBd; source: E. coli, heterologously co-expressed with MglA from plasmid pD2492N/3734
T1 sequence (looked up): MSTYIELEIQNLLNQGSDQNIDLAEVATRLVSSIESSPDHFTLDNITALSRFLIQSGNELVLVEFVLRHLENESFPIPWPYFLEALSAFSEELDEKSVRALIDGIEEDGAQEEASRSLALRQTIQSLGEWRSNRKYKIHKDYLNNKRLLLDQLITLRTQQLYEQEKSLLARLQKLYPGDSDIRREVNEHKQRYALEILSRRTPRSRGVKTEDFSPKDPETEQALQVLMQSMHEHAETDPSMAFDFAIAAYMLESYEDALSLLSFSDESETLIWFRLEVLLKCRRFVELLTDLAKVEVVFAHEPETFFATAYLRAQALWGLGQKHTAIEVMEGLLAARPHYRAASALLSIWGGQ
Experiment: SEC; gel filtration and SDS-PAGE of purified MglA and Bd2492-His6; data not shown
Settings: both partners purified

B1: MglA (Bd3734) co-expressed in E. coli from plasmid pD2492N/3734 (natural protein, Bdellovibrio bacteriovorus HD100, UniProt Q6MH29 1-197, looked up)
chain: MSFINYNAKEIHCKVVYYGPSLGGKTTNIQWVYQKTAEDQKSKLVALNTDIERTLFFDFLPLNVGDIRGFKTRFHLYTVPGQVVYDASRKLILKGLDGVIFVADSQIERMDENLESLRNLERNLEQQGYDIREIPLIMQYNKRDLPNVASLAELRSALNPYNAPEIEGCASEGRGVFESLKTVSKSIINVLKGGTTL
notes: MglA (Bd3734) of Bdellovibrio bacteriovorus HD100; No tag is named on MglA in this construct; source: E. coli, heterologously co-expressed with Bd2492-His6 from plasmid pD2492N/3734
- stoichiometry N: 1
